# Tested on: Cc1cn([C@H]2C[C@H](O)[C@@H](COP(=O)(O)OP(=O)(O)O[C@H]3O[C@H](C)[C@H](O)[C@H](N)[C@H]3O)O2)c(=O)[nH]c1=O
# Experiment: purified protein
# Details: 5 mM N10-formyl-THF, 50 mM HEPPS pH 8.0, 0.20 uM enzyme
substance,measurement,value
FdtF (Salmonella enterica),Km,100 ± 10 µM
same,kcat,15.5 ± 0.8 s⁻¹
same,kcat/Km,160000 ± 18000 M⁻¹ s⁻¹
